Data as given in FireProtDB (doi:10.1021/bi9910169).

B1: Lysozyme C, P61626 (parent)
chain: MKALIVLGLVLLSVTVQGKVFERCELARTLKRLGMDGYRGISLANWMCLAKWESGYNTRATNYNAGDRSTDYGIFQINSRYWCNDGKTPGAVNACHLSCSALLQDNIADAVACAKRVVRDPQGIRAWVAWRNRCQNRDVRQYVQGCGV

Variants of: B1
Conditions: Homo sapiens; pH 2.5; Thermal; DSC; glycine-HCl 0.05 M; reversible: yes; structure 1LZ1; whole UniProt chain shown

Variant	Tm [°C]	unfolding enthalpy (calorimetric) [kcal/mol]	unfolding enthalpy (van 't Hoff) [kcal/mol]
MKALIVLGLVLLSVTVQGKVFERCELARTLKRLGMDGYRGISLANWMCLAKWESGYNVRATNYNAGDRSTDYGIFQINSRYWCNDGKTPGAVNACHLSCSALLQDNIADAVACAKRVVRDPQGIRAWVAWRNRCQNRDVRQYVQGCGV	57	96.6	104
MKALIVLGLVLLSVTVQGKVFERCELARTLKRLGMDGYRGISLANWMCLAKWESGYNTRATNYNAGDRSVDYGIFQINSRYWCNDGKTPGAVNACHLSCSALLQDNIADAVACAKRVVRDPQGIRAWVAWRNRCQNRDVRQYVQGCGV	58.8	98.7	104

Same assay, conditions: Homo sapiens; pH 2.7; Thermal; DSC; glycine-HCl 0.05 M; reversible: yes; structure 1LZ1; whole UniProt chain shown

Variant	Tm [°C]	unfolding enthalpy (calorimetric) [kcal/mol]	unfolding enthalpy (van 't Hoff) [kcal/mol]
MKALIVLGLVLLSVTVQGKVFERCELARTLKRLGMDGYRGISLANWMCLAKWESGYNVRATNYNAGDRSTDYGIFQINSRYWCNDGKTPGAVNACHLSCSALLQDNIADAVACAKRVVRDPQGIRAWVAWRNRCQNRDVRQYVQGCGV	59.2	93	99.9
MKALIVLGLVLLSVTVQGKVFERCELARTLKRLGMDGYRGISLANWMCLAKWESGYNTRATNYNAGDRSVDYGIFQINSRYWCNDGKTPGAVNACHLSCSALLQDNIADAVACAKRVVRDPQGIRAWVAWRNRCQNRDVRQYVQGCGV	62.1	102	107
MKALIVLGLVLLSVTVQGKVFERCELARTLKRLGMDGYRGISLANWMCLAKWESGYNTRATNYNAGDRSADYGIFQINSRYWCNDGKTPGAVNACHLSCSALLQDNIADAVACAKRVVRDPQGIRAWVAWRNRCQNRDVRQYVQGCGV	61.9	103	109

Same assay, conditions: Homo sapiens; pH 2.85; Thermal; DSC; glycine-HCl 0.05 M; reversible: yes; structure 1LZ1; whole UniProt chain shown

Variant	Tm [°C]	unfolding enthalpy (calorimetric) [kcal/mol]	unfolding enthalpy (van 't Hoff) [kcal/mol]
MKALIVLGLVLLSVTVQGKVFERCELARTLKRLGMDGYRGISLANWMCLAKWESGYNVRATNYNAGDRSTDYGIFQINSRYWCNDGKTPGAVNACHLSCSALLQDNIADAVACAKRVVRDPQGIRAWVAWRNRCQNRDVRQYVQGCGV	63.2	110	113
MKALIVLGLVLLSVTVQGKVFERCELARTLKRLGMDGYRGISLANWMCLAKWESGYNTRATNYNAGDRSVDYGIFQINSRYWCNDGKTPGAVNACHLSCSALLQDNIADAVACAKRVVRDPQGIRAWVAWRNRCQNRDVRQYVQGCGV	64.2	105	110
MKALIVLGLVLLSVTVQGKVFERCELARTLKRLGMDGYRGISLANWMCLAKWESGYNTRATNYNAGDRSADYGIFQINSRYWCNDGKTPGAVNACHLSCSALLQDNIADAVACAKRVVRDPQGIRAWVAWRNRCQNRDVRQYVQGCGV	64.4	105	112

Same assay, conditions: Homo sapiens; pH 3; Thermal; DSC; glycine-HCl 0.05 M; reversible: yes; structure 1LZ1; whole UniProt chain shown

Variant	Tm [°C]	unfolding enthalpy (calorimetric) [kcal/mol]	unfolding enthalpy (van 't Hoff) [kcal/mol]
MKALIVLGLVLLSVTVQGKVFERCELARTLKRLGMDGYRGISLANWMCLAKWESGYNVRATNYNAGDRSTDYGIFQINSRYWCNDGKTPGAVNACHLSCSALLQDNIADAVACAKRVVRDPQGIRAWVAWRNRCQNRDVRQYVQGCGV	66.3	112	119
MKALIVLGLVLLSVTVQGKVFERCELARTLKRLGMDGYRGISLANWMCLAKWESGYNTRATNYNAGDRSVDYGIFQINSRYWCNDGKTPGAVNACHLSCSALLQDNIADAVACAKRVVRDPQGIRAWVAWRNRCQNRDVRQYVQGCGV	66.6	107	113
MKALIVLGLVLLSVTVQGKVFERCELARTLKRLGMDGYRGISLANWMCLAKWESGYNTRATNYNAGDRSADYGIFQINSRYWCNDGKTPGAVNACHLSCSALLQDNIADAVACAKRVVRDPQGIRAWVAWRNRCQNRDVRQYVQGCGV	66.9	108	114

Same assay, conditions: Homo sapiens; pH 3.1; Thermal; DSC; glycine-HCl 0.05 M; reversible: yes; structure 1LZ1; whole UniProt chain shown

Variant	Tm [°C]	unfolding enthalpy (calorimetric) [kcal/mol]	unfolding enthalpy (van 't Hoff) [kcal/mol]
MKALIVLGLVLLSVTVQGKVFERCELARTLKRLGMDGYRGISLANWMCLAKWESGYNVRATNYNAGDRSTDYGIFQINSRYWCNDGKTPGAVNACHLSCSALLQDNIADAVACAKRVVRDPQGIRAWVAWRNRCQNRDVRQYVQGCGV	68.7	115	123
MKALIVLGLVLLSVTVQGKVFERCELARTLKRLGMDGYRGISLANWMCLAKWESGYNTRATNYNAGDRSVDYGIFQINSRYWCNDGKTPGAVNACHLSCSALLQDNIADAVACAKRVVRDPQGIRAWVAWRNRCQNRDVRQYVQGCGV	68.7	111	114
MKALIVLGLVLLSVTVQGKVFERCELARTLKRLGMDGYRGISLANWMCLAKWESGYNTRATNYNAGDRSADYGIFQINSRYWCNDGKTPGAVNACHLSCSALLQDNIADAVACAKRVVRDPQGIRAWVAWRNRCQNRDVRQYVQGCGV	68.9	109	118
